This test has as its target syt2_rat Syt2 (UniProt P29101).

For the substance “Botulinum neurotoxin type B (Clostridium botulinum) (from UniProt P10844) V1118D”, the “effect of a mutation on the interaction” value is “decreasing interaction strength”. To “Botulinum neurotoxin type B (Clostridium botulinum) (from UniProt P10844) K1192E” belongs “decreasing interaction strength”; to “Botulinum neurotoxin type B (Clostridium botulinum) (from UniProt P10844) F1194A”, “disrupting interaction strength”; to “Botulinum neurotoxin type B (Clostridium botulinum) (from UniProt P10844) F1204A”, “disrupting interaction strength”.
